Data as given in patent US10704056B2, “Constitutively active ABA receptor mutants” (The Regents of the University of California, priority 2011, dated 2020).

Experiments:
Columbia seeds = assay: Seed dormancy / germination assay of 35S-driven transgenic lines, stratified vs unstratified; type: in vivo, Arabidopsis; settings: 35S-driven overexpression in wild-type Columbia background
Experimental: To investigate the effects of the PYL2^CA3 allele, we performed a number of physiological assays on wild-type and aba2-1 genotypes. Columbia (Col), 35S::PYL2, and 35S::PYL2^CA3 seed samples were divided into two portions; one portion was stratified on ⅓ MS plates for 6 days at 4° C. and the second portion was plated six days later ⅓ MS plates. Both samples were the transferred to room temperature (23° C.) and incubated in darkness. […] Each experiment was performed in triplicate and each point plotted represents the average of tests conducted using 40 to 70 seeds. […] Thus, overexpression of PYL2^CA3 activates the ABA-regulated seed dormancy pathway.
In order to assay dormancy of seeds for Columbia, 35S::GFP-PYL2, and 35S::GFP-PYL2^CA3 were divided into two portions and surface sterilized using chlorine gas (prepared in situ using bleach and HCl). One portion was stratified on ⅓ MS agar plates for 6 days at 4° C. in darkness and the second portion, which was maintained at room temperature, was seeded six days later on the ⅓ MS agar plates; both samples were transferred to a 23° C. light-tight growth chamber and germination scored at 24 hour periods. The homozygous 35S::GFP-PYL2 and 35S::GFP-[…] seeds used in these experiments were ˜5- and ˜6-months post-harvest respectively at the time of the experiment shown in FIG. 12.

aba2-1 mutant seeds = assay: Germination of aba2-1 background seeds on paclobutrazol or NaCl; type: in vivo, Arabidopsis; settings: 35S-driven transgene, germination 72 hours
From the text: As a further test of the ability of PYL2^CA3 to activate ABA signaling in vivo, we examined the ability of this allele to revert phenotypes caused by ABA deficiency, reasoning that effective activation of the ABA pathway should suppress phenotypes observed in the aba2 mutant. […] To test this, we examined the germination of various genotypes on paclobutrazol, an inhibitor of GA biosynthesis. Wild-type seed germination is blocked by paclobutrazol treatment but aba2 mutants germinate due to defects in ABA-induced seed dormancy. We also examined the germination of various genotypes in the presence of NaCl, which, like paclobutrazole, inhibits seed germination in an ABA- and aba2-dependent manner (Gonzalez-Guzman M. et al. (2002) Plant Cell 14(8):1833-1846; Leon-Kloosterziel K M, et al. (1996) Plant J 10 (4):655-661). […] Thus, expression of PYL2^CA3 in developing seeds is sufficient to activate an ABA-dependent physiological process despite the depleted ABA levels present in the aba2 background.
Germination tests on paclobutrazol (Wako Chemicals, Japan) and NaCl were conducted as following. Columbia, aba2-1, aba2-1; 35S::GFP-PYL2 and aba2-1; 35S::GFP-PYL2″^3 seeds were surface sterilized and plated onto ⅓ MS agar media containing 25, 50 or 100 μM paclobutrazol or 0, 50, 200, 250 mM NaCl. Control wells contained ⅓ MS agar and 0.1% DMSO, the carrier solvent for paclobutrazol. The seeds were stratified for four days in darkness and then transferred to continuous illumination at room temperature (23° C.). Germination was assayed after 72 hours; seeds showing radicals at least ½ seed length or greater were scored as positive. Each experiment was performed in triplicate; experiments were performed on seeds that were ˜6-months post-harvest.

B1: PYL2^CA3: PYL2 mutant (H65P, V87F, F165V); expressed in plants as 35S-driven GFP fusion (protein)
chain: HHHHHHMSSSPAVKGLTDEEQKTLEPVIKTYHQFEPDPTTCTSLITQRIHAPASVVWPLIRRFDNPERYKPFVKRCRLISGDGDVGSVREVTFISGLPASTSTERLEFVDDDHRVLSFRVVGGEHRLKNYKSVTSVNEFLNQDSGKVYTVVLESYTVDIPEGNTEEDTKMVVDTVVKLNLQKLGVAATSAPMHDDE
- seed hyperdormancy (stratification dependent germination) (Columbia seeds): induces a state of hyperdormancy in seeds
- NaCl resistance of aba2 mutant seed germination (aba2-1 mutant seeds): suppressed
- paclobutrazol resistance of aba2 mutant seed germination (aba2-1 mutant seeds): suppressed
